{"source": "the Human Domainome abundance scans (Beltran et al. 2025)", "parents": {"B1": {"name": "Transcription factor SOX-4, residues 60 to 127; numbered along this chain, Q06945 (parent)", "chain": "KRPMNAFMVWSQIERRKIMEQSPDMHNAEISKRLGKRWKLLKDSDKIPFIREAERLRLKHMADYPDYK"}}, "note": "± gives the uncertainty stated by the source."}
{"variants_of": "B1", "assay": "abundance fitness (aPCA) (normalised: wild type 0, dead -1); higher = more abundant; growth selection in yeast, the domain comes from the species named", "settings": "Homo sapiens"}
{"variant": "M19T", "abundance fitness": "-0.338 ± 0.098"}
{"variant": "M19E", "abundance fitness": "-0.019 ± 0.067"}
{"variant": "M19R", "abundance fitness": "-0.236 ± 0.05"}
{"variant": "M19N", "abundance fitness": "-0.396 ± 0.057"}
{"variant": "M19G", "abundance fitness": "-0.452 ± 0.053"}
{"variant": "A28R", "abundance fitness": "-0.132 ± 0.052"}
{"variant": "A28C", "abundance fitness": "-0.351 ± 0.15"}
{"variant": "A28L", "abundance fitness": "-0.195 ± 0.068"}
{"variant": "A28W", "abundance fitness": "-0.242 ± 0.062"}
{"variant": "V9K", "abundance fitness": "-0.978 ± 0.29"}
{"variant": "V9S", "abundance fitness": "-0.803 ± 0.15"}
{"variant": "V9M", "abundance fitness": "-0.266 ± 0.13"}
{"variant": "V9I", "abundance fitness": "0.066 ± 0.057"}
{"variant": "M25W", "abundance fitness": "-0.672 ± 0.12"}
{"variant": "M25F", "abundance fitness": "-0.614 ± 0.29"}
{"variant": "M25T", "abundance fitness": "-0.189 ± 0.078"}
{"variant": "M25I", "abundance fitness": "0.004 ± 0.4"}
{"variant": "R57W", "abundance fitness": "-0.32 ± 0.11"}
{"variant": "R57M", "abundance fitness": "-0.135 ± 0.086"}
{"variant": "R57Q", "abundance fitness": "-0.206 ± 0.1"}
{"variant": "M4V", "abundance fitness": "-0.068 ± 0.044"}
{"variant": "M4L", "abundance fitness": "-0.105 ± 0.053"}
{"variant": "S31T", "abundance fitness": "0.047 ± 0.052"}
{"variant": "S31P", "abundance fitness": "-0.733 ± 0.11"}
{"variant": "S31R", "abundance fitness": "-0.137 ± 0.032"}
{"variant": "S31K", "abundance fitness": "-0.039 ± 0.06"}
{"variant": "S31C", "abundance fitness": "-0.027 ± 0.049"}
{"variant": "S31N", "abundance fitness": "0.05 ± 0.044"}
{"variant": "S31G", "abundance fitness": "-0.189 ± 0.03"}
{"variant": "S11P", "abundance fitness": "-0.99 ± 0.19"}
{"variant": "S11H", "abundance fitness": "-0.703 ± 0.088"}
{"variant": "S11I", "abundance fitness": "-0.737 ± 0.079"}
{"variant": "S11E", "abundance fitness": "-0.031 ± 0.11"}
{"variant": "S11V", "abundance fitness": "-0.529 ± 0.058"}
{"variant": "L58W", "abundance fitness": "-0.247 ± 0.055"}
{"variant": "L58C", "abundance fitness": "-0.247 ± 0.058"}
{"variant": "L58N", "abundance fitness": "-0.028 ± 0.046"}
{"variant": "L58H", "abundance fitness": "-0.018 ± 0.062"}
{"variant": "L58K", "abundance fitness": "-0.07 ± 0.046"}
{"variant": "L58D", "abundance fitness": "-0.039 ± 0.047"}
{"variant": "L58I", "abundance fitness": "-0.132 ± 0.047"}
{"variant": "L58E", "abundance fitness": "0.091 ± 0.058"}
{"variant": "L58A", "abundance fitness": "0.013 ± 0.05"}
{"variant": "P3I", "abundance fitness": "-0.416 ± 0.079"}
{"variant": "P3R", "abundance fitness": "-0.149 ± 0.039"}
{"variant": "E20K", "abundance fitness": "-0.439 ± 0.16"}
{"variant": "E20A", "abundance fitness": "-0.265 ± 0.098"}
{"variant": "E20D", "abundance fitness": "-0.255 ± 0.16"}
{"variant": "E20I", "abundance fitness": "-0.227 ± 0.14"}
{"variant": "E20F", "abundance fitness": "-0.601 ± 0.19"}
{"variant": "E20M", "abundance fitness": "-0.239 ± 0.087"}
{"variant": "L41S", "abundance fitness": "-0.779 ± 0.1"}
{"variant": "L41A", "abundance fitness": "-0.875 ± 0.12"}
{"variant": "L34M", "abundance fitness": "-0.798 ± 0.18"}
{"variant": "L34P", "abundance fitness": "-0.955 ± 0.2"}
{"variant": "L34W", "abundance fitness": "-0.713 ± 0.11"}
{"variant": "L34C", "abundance fitness": "-0.825 ± 0.18"}
{"variant": "L34F", "abundance fitness": "-0.724 ± 0.18"}
{"variant": "L34Q", "abundance fitness": "-0.577 ± 0.22"}
{"variant": "L34I", "abundance fitness": "-0.083 ± 0.17"}
{"variant": "F49R", "abundance fitness": "-1.04 ± 0.11"}
{"variant": "H60S", "abundance fitness": "0.041 ± 0.06"}
{"variant": "H60P", "abundance fitness": "-0.045 ± 0.079"}
{"variant": "H60F", "abundance fitness": "-0.193 ± 0.21"}
{"variant": "H60C", "abundance fitness": "-0.205 ± 0.13"}
{"variant": "H60Q", "abundance fitness": "-0.066 ± 0.072"}
{"variant": "H60D", "abundance fitness": "0.005 ± 0.075"}
{"variant": "H60I", "abundance fitness": "-0.408 ± 0.2"}
{"variant": "H60W", "abundance fitness": "-0.161 ± 0.074"}
{"variant": "H60R", "abundance fitness": "-0.19 ± 0.047"}
{"variant": "P48T", "abundance fitness": "-0.346 ± 0.071"}
{"variant": "P48M", "abundance fitness": "-0.168 ± 0.069"}
{"variant": "P48H", "abundance fitness": "-0.31 ± 0.048"}
{"variant": "P48S", "abundance fitness": "-0.453 ± 0.057"}
{"variant": "P48Y", "abundance fitness": "-0.566 ± 0.1"}
{"variant": "P48K", "abundance fitness": "-0.482 ± 0.1"}
{"variant": "M61P", "abundance fitness": "-0.202 ± 0.087"}
{"variant": "M61R", "abundance fitness": "-0.134 ± 0.057"}
{"variant": "M61S", "abundance fitness": "0.001 ± 0.071"}
{"variant": "M61I", "abundance fitness": "-0.238 ± 0.072"}
{"variant": "M61W", "abundance fitness": "-0.224 ± 0.083"}
{"variant": "M61N", "abundance fitness": "-0.104 ± 0.13"}
{"variant": "M61Q", "abundance fitness": "0.092 ± 0.079"}
{"variant": "E54K", "abundance fitness": "-0.369 ± 0.06"}
{"variant": "E54H", "abundance fitness": "-0.435 ± 0.045"}
{"variant": "E54D", "abundance fitness": "-0.264 ± 0.046"}
{"variant": "E54F", "abundance fitness": "-0.574 ± 0.056"}
{"variant": "E54Y", "abundance fitness": "-0.652 ± 0.058"}
{"variant": "E54R", "abundance fitness": "-0.469 ± 0.051"}
{"variant": "E54G", "abundance fitness": "-0.514 ± 0.044"}
{"variant": "W10M", "abundance fitness": "-1.08 ± 0.34"}
{"variant": "W10G", "abundance fitness": "-0.954 ± 0.2"}
{"variant": "W10T", "abundance fitness": "-0.958 ± 0.24"}
{"variant": "W10R", "abundance fitness": "-0.649 ± 0.093"}
{"variant": "I18E", "abundance fitness": "-0.63 ± 0.12"}
{"variant": "I18H", "abundance fitness": "-0.627 ± 0.2"}
{"variant": "I18F", "abundance fitness": "-0.351 ± 0.15"}
{"variant": "R37M", "abundance fitness": "-0.067 ± 0.13"}
{"variant": "R37L", "abundance fitness": "-0.364 ± 0.097"}
{"variant": "R37P", "abundance fitness": "-0.811 ± 0.16"}
{"variant": "R37I", "abundance fitness": "-0.371 ± 0.21"}
{"variant": "Q12V", "abundance fitness": "-0.434 ± 0.092"}
{"variant": "Q12A", "abundance fitness": "-0.138 ± 0.1"}
{"variant": "Q12R", "abundance fitness": "-0.267 ± 0.042"}
{"variant": "Q12E", "abundance fitness": "0.05 ± 0.069"}
{"variant": "Q12C", "abundance fitness": "-0.07 ± 0.06"}
{"variant": "Q12F", "abundance fitness": "-0.494 ± 0.1"}
{"variant": "Q12Y", "abundance fitness": "-0.343 ± 0.17"}
{"variant": "S22D", "abundance fitness": "-0.034 ± 0.05"}
{"variant": "S22E", "abundance fitness": "-0.027 ± 0.052"}
{"variant": "S22G", "abundance fitness": "-0.4 ± 0.041"}
{"variant": "K42A", "abundance fitness": "-0.066 ± 0.079"}
{"variant": "K42N", "abundance fitness": "-0.212 ± 0.17"}
{"variant": "I47K", "abundance fitness": "-0.112 ± 0.074"}
{"variant": "I47W", "abundance fitness": "-0.251 ± 0.045"}
{"variant": "I47E", "abundance fitness": "0.095 ± 0.059"}
{"variant": "E52V", "abundance fitness": "-0.556 ± 0.065"}
{"variant": "E52Y", "abundance fitness": "-0.634 ± 0.23"}
{"variant": "E52P", "abundance fitness": "-1.14 ± 0.29"}
{"variant": "E52Q", "abundance fitness": "-0.291 ± 0.088"}
{"variant": "I50Y", "abundance fitness": "0.041 ± 0.28"}
{"variant": "I50N", "abundance fitness": "-0.284 ± 0.19"}
{"variant": "I50E", "abundance fitness": "0.009 ± 0.081"}
{"variant": "I50G", "abundance fitness": "-0.309 ± 0.07"}
{"variant": "I50A", "abundance fitness": "-0.186 ± 0.1"}
{"variant": "I50Q", "abundance fitness": "-0.021 ± 0.1"}
{"variant": "I50C", "abundance fitness": "-0.51 ± 0.2"}
{"variant": "I50S", "abundance fitness": "-0.322 ± 0.086"}
{"variant": "I50F", "abundance fitness": "0.003 ± 0.12"}
{"variant": "I50W", "abundance fitness": "-0.633 ± 0.15"}
{"variant": "I50L", "abundance fitness": "-0.194 ± 0.082"}
{"variant": "K17C", "abundance fitness": "-0.857 ± 0.18"}
{"variant": "K17L", "abundance fitness": "-0.215 ± 0.052"}
{"variant": "K17P", "abundance fitness": "-0.987 ± 0.23"}
{"variant": "K17V", "abundance fitness": "-0.318 ± 0.1"}
{"variant": "R15A", "abundance fitness": "-0.38 ± 0.061"}
{"variant": "R15Q", "abundance fitness": "-0.3 ± 0.069"}
{"variant": "R15N", "abundance fitness": "-0.738 ± 0.096"}
{"variant": "R15L", "abundance fitness": "-0.512 ± 0.056"}
{"variant": "R15C", "abundance fitness": "-0.357 ± 0.049"}
{"variant": "R15F", "abundance fitness": "-0.464 ± 0.045"}
{"variant": "G35K", "abundance fitness": "0.262 ± 0.083"}
{"variant": "G35H", "abundance fitness": "0.178 ± 0.051"}
{"variant": "G35V", "abundance fitness": "0.134 ± 0.037"}
{"variant": "G35R", "abundance fitness": "0.19 ± 0.037"}
{"variant": "K39V", "abundance fitness": "-0.306 ± 0.039"}
{"variant": "K39C", "abundance fitness": "-0.329 ± 0.044"}
{"variant": "K39L", "abundance fitness": "-0.244 ± 0.048"}
{"variant": "K39T", "abundance fitness": "-0.216 ± 0.064"}
{"variant": "K39I", "abundance fitness": "-0.384 ± 0.037"}
{"variant": "K39S", "abundance fitness": "-0.027 ± 0.036"}
{"variant": "K39G", "abundance fitness": "-0.098 ± 0.04"}
{"variant": "K39W", "abundance fitness": "-0.758 ± 0.091"}
{"variant": "I13Y", "abundance fitness": "-0.456 ± 0.14"}
{"variant": "I13E", "abundance fitness": "-0.163 ± 0.1"}
{"variant": "I13H", "abundance fitness": "0.027 ± 0.23"}
{"variant": "I13Q", "abundance fitness": "-0.12 ± 0.095"}
{"variant": "I13P", "abundance fitness": "-0.484 ± 0.09"}
{"variant": "I13W", "abundance fitness": "-0.531 ± 0.14"}
{"variant": "W38N", "abundance fitness": "-0.874 ± 0.094"}
{"variant": "W38C", "abundance fitness": "-0.849 ± 0.076"}
{"variant": "W38E", "abundance fitness": "-0.799 ± 0.1"}
{"variant": "W38Y", "abundance fitness": "-0.548 ± 0.089"}
{"variant": "W38T", "abundance fitness": "-0.632 ± 0.11"}
{"variant": "W38V", "abundance fitness": "-0.887 ± 0.12"}
{"variant": "D45H", "abundance fitness": "-0.429 ± 0.32"}
{"variant": "D45G", "abundance fitness": "-0.495 ± 0.1"}
